Experimental data from article PMC4256133 (Proteins, 2014).

Target: the molecule itself
Test: crystal structure

B1: Octaprenyl pyrophosphate synthase from Escherichia coli (enzyme, E. coli)
chain: MNLEKINELTAQDMAGVNAAILEQLNSDVQLINQLGYYIVSGGGKRIRPMIAVLAARAVGYEGNAHVTIAALIEFIHTATLLHDDVVDESDMRRGKATANAAFGNAASVLVGDFIYTRAFQMMTSLGSLKVLEVMSEAVNVIAEGEVLQLMNVNDPDITEENYMRVIYSKTARLFEAAAQCSGILAGCTPEEEKGLQDYGRYLGTAFQLIDDLLDYNADGEQLGKNVGDDLNEGKPTLPLLHAMHHGTPEQAQMIRTAIEQGNGRHLLEPVLEAMNACGSLEWTRQRAEEEADKAIAALQVLPDTPWREALIGLAHIAVQRDR
  stoichiometry N: 2
